According to patent US20190233495A1 (Sanofi, published 2019):
Each block holds one binder with its values, some of them ahead of it. Non-standard residues stand in square brackets, D forms with d. 1Nal = N[C@@H](Cc1cccc2ccccc12)C(=O)O; Nle = CCCC[C@H](N)C(=O)O; Aib = CC(C)(N)C(=O)O

Biological target: T1, RXFP1 receptor (UniProt Q9HBX9 1-757, limits assumed)
T1 sequence (looked up): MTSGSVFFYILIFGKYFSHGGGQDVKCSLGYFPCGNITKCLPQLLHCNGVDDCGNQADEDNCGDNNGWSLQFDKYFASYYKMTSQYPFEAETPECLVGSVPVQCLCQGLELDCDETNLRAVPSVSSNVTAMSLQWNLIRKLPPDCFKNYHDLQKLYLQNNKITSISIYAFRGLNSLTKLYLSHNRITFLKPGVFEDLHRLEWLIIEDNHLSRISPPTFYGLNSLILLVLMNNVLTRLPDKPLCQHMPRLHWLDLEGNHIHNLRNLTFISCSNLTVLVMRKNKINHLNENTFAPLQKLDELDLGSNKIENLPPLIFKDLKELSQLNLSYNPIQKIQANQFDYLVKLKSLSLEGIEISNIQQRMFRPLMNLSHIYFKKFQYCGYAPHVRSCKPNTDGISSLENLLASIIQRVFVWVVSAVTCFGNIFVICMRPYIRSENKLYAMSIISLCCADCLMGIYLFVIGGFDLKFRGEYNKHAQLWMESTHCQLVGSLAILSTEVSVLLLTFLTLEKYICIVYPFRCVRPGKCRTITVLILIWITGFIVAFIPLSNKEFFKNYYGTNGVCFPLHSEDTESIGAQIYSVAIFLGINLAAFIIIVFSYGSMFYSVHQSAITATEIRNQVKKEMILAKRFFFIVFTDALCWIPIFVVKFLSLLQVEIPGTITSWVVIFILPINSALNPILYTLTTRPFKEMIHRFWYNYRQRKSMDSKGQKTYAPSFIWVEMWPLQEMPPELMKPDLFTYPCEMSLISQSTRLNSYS
Experiment: cell-based or functional assay

B1: SEQ ID NO: 15 (peptide)
peptide: Ac-LEGREKVRAQI[Aib][Aib]EG[Nle]ST[1Nal]SKRKK-NH2
SMILES: CCCC[C@H](NC(=O)CNC(=O)[C@H](CCC(=O)O)NC(=O)C(C)(C)NC(=O)C(C)(C)NC(=O)[C@@H](NC(=O)[C@H](CCC(N)=O)NC(=O)[C@H](C)NC(=O)[C@H](CCCNC(=N)N)NC(=O)[C@@H](NC(=O)[C@H](CCCCN)NC(=O)[C@H](CCC(=O)O)NC(=O)[C@H](CCCNC(=N)N)NC(=O)CNC(=O)[C@H](CCC(=O)O)NC(=O)[C@H](CC(C)C)NC(C)=O)C(C)C)[C@@H](C)CC)C(=O)N[C@@H](CO)C(=O)N[C@H](C(=O)N[C@@H](Cc1cccc2ccccc12)C(=O)N[C@@H](CO)C(=O)N[C@@H](CCCCN)C(=O)N[C@@H](CCCNC(=N)N)C(=O)N[C@@H](CCCCN)C(=O)N[C@@H](CCCCN)C(N)=O)[C@@H](C)O
- cAMP assay in OVCAR 5 cells EC50: 24.4 nM
- cAMP assay in OVCAR 5 cells Emax: 104%

B3: SEQ ID NO: 2 (peptide)
peptide: Ac-LEGREKVRAQI[Aib][Aib]EGMSKWSKRKK-NH2
SMILES: CC[C@H](C)[C@H](NC(=O)[C@H](CCC(N)=O)NC(=O)[C@H](C)NC(=O)[C@H](CCCNC(=N)N)NC(=O)[C@@H](NC(=O)[C@H](CCCCN)NC(=O)[C@H](CCC(=O)O)NC(=O)[C@H](CCCNC(=N)N)NC(=O)CNC(=O)[C@H](CCC(=O)O)NC(=O)[C@H](CC(C)C)NC(C)=O)C(C)C)C(=O)NC(C)(C)C(=O)NC(C)(C)C(=O)N[C@@H](CCC(=O)O)C(=O)NCC(=O)N[C@@H](CCSC)C(=O)N[C@@H](CO)C(=O)N[C@@H](CCCCN)C(=O)N[C@@H](Cc1c[nH]c2ccccc12)C(=O)N[C@@H](CO)C(=O)N[C@@H](CCCCN)C(=O)N[C@@H](CCCNC(=N)N)C(=O)N[C@@H](CCCCN)C(=O)N[C@@H](CCCCN)C(N)=O
- cAMP assay in OVCAR 5 cells EC50: 14.4 nM
- cAMP assay in OVCAR 5 cells Emax: 99%

B5: SEQ ID NO: 14 (peptide)
peptide: Ac-LEGREKVRAQI[Aib][Aib]EG[Nle]SK[1Nal]SKRKK-NH2
SMILES: CCCC[C@H](NC(=O)CNC(=O)[C@H](CCC(=O)O)NC(=O)C(C)(C)NC(=O)C(C)(C)NC(=O)[C@@H](NC(=O)[C@H](CCC(N)=O)NC(=O)[C@H](C)NC(=O)[C@H](CCCNC(=N)N)NC(=O)[C@@H](NC(=O)[C@H](CCCCN)NC(=O)[C@H](CCC(=O)O)NC(=O)[C@H](CCCNC(=N)N)NC(=O)CNC(=O)[C@H](CCC(=O)O)NC(=O)[C@H](CC(C)C)NC(C)=O)C(C)C)[C@@H](C)CC)C(=O)N[C@@H](CO)C(=O)N[C@@H](CCCCN)C(=O)N[C@@H](Cc1cccc2ccccc12)C(=O)N[C@@H](CO)C(=O)N[C@@H](CCCCN)C(=O)N[C@@H](CCCNC(=N)N)C(=O)N[C@@H](CCCCN)C(=O)N[C@@H](CCCCN)C(N)=O
- cAMP assay in OVCAR 5 cells EC50: 32.8 nM
- cAMP assay in OVCAR 5 cells Emax: 106%

B6: SEQ ID NO: 13 (peptide)
peptide: Ac-LEGREKVRAQI[Aib][Aib]EG[Nle]STWSKRKK-NH2
SMILES: CCCC[C@H](NC(=O)CNC(=O)[C@H](CCC(=O)O)NC(=O)C(C)(C)NC(=O)C(C)(C)NC(=O)[C@@H](NC(=O)[C@H](CCC(N)=O)NC(=O)[C@H](C)NC(=O)[C@H](CCCNC(=N)N)NC(=O)[C@@H](NC(=O)[C@H](CCCCN)NC(=O)[C@H](CCC(=O)O)NC(=O)[C@H](CCCNC(=N)N)NC(=O)CNC(=O)[C@H](CCC(=O)O)NC(=O)[C@H](CC(C)C)NC(C)=O)C(C)C)[C@@H](C)CC)C(=O)N[C@@H](CO)C(=O)N[C@H](C(=O)N[C@@H](Cc1c[nH]c2ccccc12)C(=O)N[C@@H](CO)C(=O)N[C@@H](CCCCN)C(=O)N[C@@H](CCCNC(=N)N)C(=O)N[C@@H](CCCCN)C(=O)N[C@@H](CCCCN)C(N)=O)[C@@H](C)O
- cAMP assay in OVCAR 5 cells EC50: 19.2 nM
- cAMP assay in OVCAR 5 cells Emax: 97%

B8: SEQ ID NO: 12 (peptide)
peptide: H-[Aib]EGREKVRAQI[Aib][Aib]EGMSKWSKRKK-NH2
SMILES: CC[C@H](C)[C@H](NC(=O)[C@H](CCC(N)=O)NC(=O)[C@H](C)NC(=O)[C@H](CCCNC(=N)N)NC(=O)[C@@H](NC(=O)[C@H](CCCCN)NC(=O)[C@H](CCC(=O)O)NC(=O)[C@H](CCCNC(=N)N)NC(=O)CNC(=O)[C@H](CCC(=O)O)NC(=O)C(C)(C)N)C(C)C)C(=O)NC(C)(C)C(=O)NC(C)(C)C(=O)N[C@@H](CCC(=O)O)C(=O)NCC(=O)N[C@@H](CCSC)C(=O)N[C@@H](CO)C(=O)N[C@@H](CCCCN)C(=O)N[C@@H](Cc1c[nH]c2ccccc12)C(=O)N[C@@H](CO)C(=O)N[C@@H](CCCCN)C(=O)N[C@@H](CCCNC(=N)N)C(=O)N[C@@H](CCCCN)C(=O)N[C@@H](CCCCN)C(N)=O
- cAMP assay in OVCAR 5 cells EC50: 28.2 nM
- cAMP assay in OVCAR 5 cells Emax: 99%

The remaining lines, values ahead:

- cAMP assay in OVCAR 5 cells EC50: 4.6 nM
- cAMP assay in OVCAR 5 cells Emax: 101%
B2: SEQ ID NO: 16 (peptide)
peptide: Ac-LEGREKVRAAI[Aib][Aib]EGMSTWSKRKK-NH2
SMILES: CC[C@H](C)[C@H](NC(=O)[C@H](C)NC(=O)[C@H](C)NC(=O)[C@H](CCCNC(=N)N)NC(=O)[C@@H](NC(=O)[C@H](CCCCN)NC(=O)[C@H](CCC(=O)O)NC(=O)[C@H](CCCNC(=N)N)NC(=O)CNC(=O)[C@H](CCC(=O)O)NC(=O)[C@H](CC(C)C)NC(C)=O)C(C)C)C(=O)NC(C)(C)C(=O)NC(C)(C)C(=O)N[C@@H](CCC(=O)O)C(=O)NCC(=O)N[C@@H](CCSC)C(=O)N[C@@H](CO)C(=O)N[C@H](C(=O)N[C@@H](Cc1c[nH]c2ccccc12)C(=O)N[C@@H](CO)C(=O)N[C@@H](CCCCN)C(=O)N[C@@H](CCCNC(=N)N)C(=O)N[C@@H](CCCCN)C(=O)N[C@@H](CCCCN)C(N)=O)[C@@H](C)O

- cAMP assay in OVCAR 5 cells EC50: 11.6 nM
- cAMP assay in OVCAR 5 cells Emax: 90%
B4: SEQ ID NO: 17 (peptide)
peptide: Ac-LEGREKVRAAI[Aib][Aib]EG[Nle]STWS[Aib]RKK-NH2
SMILES: CCCC[C@H](NC(=O)CNC(=O)[C@H](CCC(=O)O)NC(=O)C(C)(C)NC(=O)C(C)(C)NC(=O)[C@@H](NC(=O)[C@H](C)NC(=O)[C@H](C)NC(=O)[C@H](CCCNC(=N)N)NC(=O)[C@@H](NC(=O)[C@H](CCCCN)NC(=O)[C@H](CCC(=O)O)NC(=O)[C@H](CCCNC(=N)N)NC(=O)CNC(=O)[C@H](CCC(=O)O)NC(=O)[C@H](CC(C)C)NC(C)=O)C(C)C)[C@@H](C)CC)C(=O)N[C@@H](CO)C(=O)N[C@H](C(=O)N[C@@H](Cc1c[nH]c2ccccc12)C(=O)N[C@@H](CO)C(=O)NC(C)(C)C(=O)N[C@@H](CCCNC(=N)N)C(=O)N[C@@H](CCCCN)C(=O)N[C@@H](CCCCN)C(N)=O)[C@@H](C)O

- cAMP assay in OVCAR 5 cells EC50: 52.1 nM
- cAMP assay in OVCAR 5 cells Emax: 104%
B7: SEQ ID NO: 18 (peptide)
peptide: Ac-LEGREKVRAAI[Aib][Aib]EGMSKWS[Aib]RK-NH2
SMILES: CC[C@H](C)[C@H](NC(=O)[C@H](C)NC(=O)[C@H](C)NC(=O)[C@H](CCCNC(=N)N)NC(=O)[C@@H](NC(=O)[C@H](CCCCN)NC(=O)[C@H](CCC(=O)O)NC(=O)[C@H](CCCNC(=N)N)NC(=O)CNC(=O)[C@H](CCC(=O)O)NC(=O)[C@H](CC(C)C)NC(C)=O)C(C)C)C(=O)NC(C)(C)C(=O)NC(C)(C)C(=O)N[C@@H](CCC(=O)O)C(=O)NCC(=O)N[C@@H](CCSC)C(=O)N[C@@H](CO)C(=O)N[C@@H](CCCCN)C(=O)N[C@@H](Cc1c[nH]c2ccccc12)C(=O)N[C@@H](CO)C(=O)NC(C)(C)C(=O)N[C@@H](CCCNC(=N)N)C(=O)N[C@@H](CCCCN)C(N)=O
